The record followed here is patent US20240269235A1 (Gilead, published 2024).

One may read the Kd as the concentration at which binding is half-saturated.

In experiment [1] the target is T1, trimeric murine IL-2 receptor (IL-2Rα, IL-2Rβ, and IL-2Rγ) on CTLL-2 cells (murine, UniProt P01590 22-268; P16297 27-539; P34902 23-369).
T1 sequence (looked up) 1: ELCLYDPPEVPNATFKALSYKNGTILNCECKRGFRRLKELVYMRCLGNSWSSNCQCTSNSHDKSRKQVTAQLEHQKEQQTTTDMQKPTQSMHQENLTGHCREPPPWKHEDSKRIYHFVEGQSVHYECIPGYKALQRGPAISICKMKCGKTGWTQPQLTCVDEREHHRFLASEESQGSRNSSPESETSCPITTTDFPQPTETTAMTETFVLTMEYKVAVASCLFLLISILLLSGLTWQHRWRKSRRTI
T1 sequence (looked up) 2: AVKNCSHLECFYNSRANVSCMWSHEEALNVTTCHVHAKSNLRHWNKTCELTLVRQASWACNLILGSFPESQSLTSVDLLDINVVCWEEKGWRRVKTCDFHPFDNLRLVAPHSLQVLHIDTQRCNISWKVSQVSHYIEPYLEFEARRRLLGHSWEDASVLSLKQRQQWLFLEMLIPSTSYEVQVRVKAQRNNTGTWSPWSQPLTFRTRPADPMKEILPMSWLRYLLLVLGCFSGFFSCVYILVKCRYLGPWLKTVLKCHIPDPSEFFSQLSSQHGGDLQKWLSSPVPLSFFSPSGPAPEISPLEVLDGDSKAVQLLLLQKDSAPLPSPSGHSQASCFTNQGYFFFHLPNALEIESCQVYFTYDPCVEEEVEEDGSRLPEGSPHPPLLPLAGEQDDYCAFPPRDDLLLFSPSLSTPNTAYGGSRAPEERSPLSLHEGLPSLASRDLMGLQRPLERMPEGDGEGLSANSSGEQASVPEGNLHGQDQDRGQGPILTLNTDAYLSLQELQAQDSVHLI
T1 sequence (looked up) 3: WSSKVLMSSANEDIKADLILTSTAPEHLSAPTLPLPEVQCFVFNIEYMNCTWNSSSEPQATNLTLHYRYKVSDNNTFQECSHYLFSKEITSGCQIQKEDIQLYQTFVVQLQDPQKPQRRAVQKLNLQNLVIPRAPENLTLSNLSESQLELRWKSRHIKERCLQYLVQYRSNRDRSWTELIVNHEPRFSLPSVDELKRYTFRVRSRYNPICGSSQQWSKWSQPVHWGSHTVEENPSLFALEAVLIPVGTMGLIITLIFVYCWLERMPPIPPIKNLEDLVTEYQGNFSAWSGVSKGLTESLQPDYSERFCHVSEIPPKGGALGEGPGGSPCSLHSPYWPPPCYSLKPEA
The experiment can be described thus: cell-based or functional assay.

For experiment [2], the target named is T2, IL-2Rβγ heterodimer, custom biotinylated Fc fusion protein (human IL-2Rβ 27-240-Fc-FLAG / human IL-2Rγ … (human, site-specific biotinylation at the AviTag)).
T2 construct: Extracellular regions fused to IgG1 knob-in-hole Fc subunits with tags; also called IL-2 receptor βγ heterodimer; Fc-IL-2Rβγ
The experiment can be described thus: SPR (Biacore), CM4 chip, biotinylated receptor on neutravidin. A general note: Surface plasmon resonance follows binding to a sensor surface in real time, without labels.

For experiment [3], the target named is T3, IL-2Rα (recombinant IL-2 receptor α, R&D Systems Cat #: 223-2A/CF), biotinylated (human, UniProt P01589 22-213, limits assumed, biotinylated using sulfo-NHS-LC-LC-Biotin).
T3 construct: Bought reagent; also used here as the IL-2Rα partner of the in-silico analysis of PDB 2B5I (another construct); also called IL-2RA; CD25
T3 sequence (looked up): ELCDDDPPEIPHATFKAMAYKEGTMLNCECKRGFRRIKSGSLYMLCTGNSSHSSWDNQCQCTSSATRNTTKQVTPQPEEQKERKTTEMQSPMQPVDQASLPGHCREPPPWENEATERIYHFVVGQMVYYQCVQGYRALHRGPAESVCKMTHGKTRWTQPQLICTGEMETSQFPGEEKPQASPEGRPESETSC
The experiment is described as above.

Experiment [4] concerns the target T2, IL-2Rβγ heterodimer, custom …. The experiment can be described thus: SPR (Biacore), C1 or CM5 chip, biotinylated receptor on neutravidin. The text has this:
(§1) Data for binding of Fc-IL-2 variant fusion proteins to IL-2Rα, IL-2Rβ and IL-2Rβγ heterodimer were collected on a Biacore platform using either C1 or CM5 chips. Neutravidin was immobilized using standard amine coupling methods and used to capture biotinylated receptors. Commercially sourced IL-2Rα (R&D Systems Cat #: 223-2A/CF) and IL-2Rβ receptors (R&D Systems Cat #:224-2B-025/CF) were biotinylated using sulfo-NHS-LC-LC-Biotin, desalted, and then captured on the neutravidin surfaces. […] Distinct purification tags were appended to the C-terminus of each chain. A FLAG epitope tag ([…]; SEQ ID NO: 257) was added at the C-terminus of IL-2Rβ subunit, followed by C-terminal Hiss tag ([…]; SEQ ID NO: 258). An AviTag™ ([…]; SEQ ID NO: 259) motif on the IL-2Rγ subunit allowed for site-specific biotinylation of the heterodimer.
(§2) Fc IL 2 fusion protein variants, Fc protein, and Proleukin were injected at various concentrations over these surfaces. Kinetic data obtained from these injections was used to extract kₒₙ and koff to calculate KD (KD=koff/kₒₙ). Experiments were run at 25° C. in HBS-EP+ running buffer (10 mM HEPES, 150 mM NaCl, 3 mM EDTA, 0.05% Tween20, pH 7.4 with 0.1 mg/ml BSA). Data shown in Table 5 for Fc IL-2 fusion protein variants binding to the indicated IL-2R surfaces were derived from the global fitting of data obtained from 2-5 independent surfaces.

Experiment [5] concerns the target T4, IL-2Rβ (recombinant IL-2 receptor β, R&D Systems Cat #:224-2B-025/CF), biotinylated (UniProt P14784 27-239, limits assumed, biotinylated using sulfo-NHS-LC-LC-Biotin).
T4 construct: Bought reagent; also called IL-2RB; CD122
T4 sequence (looked up): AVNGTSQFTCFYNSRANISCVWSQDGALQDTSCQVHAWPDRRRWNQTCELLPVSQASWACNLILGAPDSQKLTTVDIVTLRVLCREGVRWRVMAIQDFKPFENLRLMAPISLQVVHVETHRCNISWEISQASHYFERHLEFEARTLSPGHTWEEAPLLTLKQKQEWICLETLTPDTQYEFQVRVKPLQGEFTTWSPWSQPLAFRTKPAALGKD
The experiment is described as above.
Source text: as §1, §2

B1: Fc-IL-2 heterodimer 117.46 (hIL-2v_Δ1-5_C125S), native IL-2Rα binding interface (Fc fusion)
chain 1: ESKYGPPCPPCPAPEAAGGPSVFLFPPKPKDTLMISRTPEVTCVVVDVSQEDPEVQFNWYVDGVEVHNAKTKPREEQFNSTYRVVSVLTVLHQDWLNGKEYKCKVSNKGLPSSIEKTISKAKGQPREPQVYTLPPSQEEMTKNQVSLWCLVKGFYPSDIAVEWESNGQPENNYKTTPPVLDSDGSFFLYSRLTVDKSRWQEGNVFSCSVMHEALHNHYTQKSLSLSLGGGGGSGGGGSGGGGSGGGGSSTKKTQLQLEHLLLDLQMILNGINNYKNPKLTRMLTFKFYMPKKATELKHLQCLEEELKPLEEVLNLAQSKNFHLRPRDLISNINVIVLELKGSETTFMCEYADETATIVEFLNRWITFSQSIISTLT
chain 2: ESKYGPPCPPCPAPEAAGGPSVFLFPPKPKDTLMISRTPEVTCVVVDVSQEDPEVQFNWYVDGVEVHNAKTKPREEQFNSTYRVVSVLTVLHQDWLNGKEYKCKVSNKGLPSSIEKTISKAKGQPREPQVYTLPPSQEEMTKNQVSLSCAVKGFYPSDIAVEWESNGQPENNYKTTPPVLDSDGSFFLVSRLTVDKSRWQEGNVFSCSVMHEALHNRFTQKSLSLSLGK
notes: hIgG4 knob-in-hole Fc heterodimer
For the molecule B1, the “STAT5 activation of CTLL-2 cells, EC50” value in experiment [1] was 0.002 nM. Also, the Kd is 0.056 nM in experiment [2], 60 nM in experiment [3], 0.142 nM in experiment [4] and 7000 nM in experiment [5].
